Experimental findings from patent US20110182943A1, “METHODS OF IMMUNE OR HEMATOLOGICAL ENHANCEMENT, INHIBITING TUMOUR FORMATION OR GROWTH, AND TREATING OR PREVENTING CANCER, CANCER SYMPTOMS, OR THE SYMPTOMS OF CANCER TREATMENTS” (FONTERRA CO-OPERATIVE GROUP LIMITED, priority 2007, published 2011) are described below.

One experiment has as its system EL-4 target cells. Briefly: Anti-tumour cytolytic activity of splenocytes from diet-fed mice. Format: in vivo. Conditions: day 56. As for the experimental part: Splenocytes were harvested following tumour cell injection on days specified. They were incubated at 37° C. with EL-4 target cells in graded E:T ratios in 96-well roundbottom plates. After a 4-hour incubation, 50 μl of supernatant was collected, and lysis was measured using the Cyto Tox 96 Assay Kit (Promega, Madison, Wis., USA). Background controls for non-specific target and effector cell lysis were included. After background subtraction, percentage of cell lysis was calculated using the formula: 100×(experimental spontaneous effector-spontaneous target/maximum target-spontaneous target).
Splenocytes were harvested from the mice described in Example 4 at day 56 and tested for their cytolytic activity against EL-4 target cells. […] The anti-tumour cytolytic activity was further increased by 86% (P<0.001) for mice fed the combination of Lf+ and milk fat compared to controls.

For experiment [1], the system named is EL-4 tumours. In words: Tumour vascularity and blood flow (CD31, CD105, DiO7) in EL-4 tumours. Format: in vivo, mice. Conditions: day 56. As to the method:
To determine tumour vascularity, 10-μm frozen tumour sections were fixed with acetone, rinsed with PBS, blocked with 2% BSA for 2 hr, and incubated overnight with the anti-CD31 antibody MEC13.3, or an anti-CD105 mAb. They were subsequently incubated for 30 min with secondary antibodies using the VECTASTAIN Universal Quick kit (Vector Laboratories, Burlingame, Calif., USA); and developed with Sigma FAST DAB (3,3′-diaminobenzidine tetrahydrochloride) and CoCl2 enhancer tablets (Sigma), and counterstained with hematoxylin. Stained blood vessels were counted in five or six blindly chosen random fields (0.155 mm^2) at ×40 magnification, and the mean of the highest three counts was calculated. To visualize blood vessels open to flow, DiO7 (Molecular Probes, Eugene, Oreg.) was injected into the tail vein at a concentration of 1.0 mg/Kg one minute prior to collecting tissues, as described previously (Ding et al., 2001). The concentric circles method was also used to assess vascularity.
The effects of Lf+ and milk fat on tumour blood flow and vascularity were analyzed by staining of tumour sections prepared as described in Example 5 with anti-CD31 and anti-CD105 mAbs, and by perfusion of DiO7, and respectively. […] Stained blood vessels were counted from six mice in six blindly chosen random fields.

The subject of a further experiment is EL-4 tumour cells. Briefly: EL-4 lymphoma tumour growth in mice fed experimental diets. Format: in vivo, C57BL/6 mice. The source says: Mice were challenged subcutaneously with 2×10^5 EL-4 tumour cells two weeks after being placed on the diets. Tumour size as measured by two perpendicular diameters (in centimetres) was monitored until day 91, or until tumours reached 1 cm in diameter. Each point represents the mean tumour size with 95% confidence intervals for either 6 mice, or the number of mice indicated.
Groups of six mice were fed a control AIN-93G diet, diets containing either 28 g Lf+ or 120 g of milk fat (AMF) per 2.4 Kg of diet, or a diet containing a combination of both Lf and milk fat. Day 0 refers to the day the mice were placed on their diets. After 2 weeks on the diets, 2×10^5 EL-4 cells were injected into the flanks of mice. Tumour size as measured by two perpendicular diameters (in centimetres) was monitored until day 56. Each point represents the mean tumour size with 95% confidence intervals for either 6 mice, or the number of mice indicated.
Mice were challenged subcutaneously with EL-4 tumour cells two weeks after being placed on the diets. Tumour size was again measured by two perpendicular diameters (in centimetres).

In experiment [2] the test system is EL-4 tumours. In words: Tumour apoptosis (TUNEL / annexin-V-fluos) in EL-4 tumour sections. Format: in vivo, mice. The following applies: day 56. As to the method:
Tumours were excised and immediately frozen in dry ice, and stored at −70° C. for later in situ detection of apoptotic cells in tumours. Frozen serial sections of 6-μm thickness were fixed with paraformaldehyde solution (4% in PBS, pH 7.4), and permeabilized with a solution containing 0.1% Triton X-100 and 0.1% sodium citrate. They were incubated with 20 μl TUNEL reagent (In Situ apoptosis detection kit from Boehringer Mannheim, Germany) for 60 min at 37° C., and examined by fluorescence microscopy. Adjacent sections were counter-stained with haematoxylin to count the total number of cells, or the number of apoptotic cells in ten randomly selected fields (magnification of ×40). The apototic index (AI) was calculated as the number of apoptotic cells×100/total number of nucleated cells. For detection of apoptotic cells in vitro, the numbers of apoptotic and necrotic tumour cells were measured by staining with annexin-V-fluos, TUNEL, and trypan blue. For measurement of gut apoptosis, jejunal sections were stained by the TUNEL method using a DeadEnd™ Fluorometric TUNEL System (Promega, Madison, Wis., USA). Apoptotic cells in 10 randomly selected cypts were counted, and the data expressed as apoptotic bodies per crypt. […]

B1: Lf+: Iron-saturated bovine lactoferrin extract (100% saturated) prepared from natural bLf (protein, UniProt P24627 20-708, looked up)
Lactotransferrin: APRKNVRWCTISQPEWFKCRRWQWRMKKLGAPSITCVRRAFALECIRAIAEKKADAVTLDGGMVFEAGRDPYKLRPVAAEIYGTKESPQTHYYAVAVVKKGSNFQLDQLQGRKSCHTGLGRSAGWIIPMGILRPYLSWTESLEPLQGAVAKFFSASCVPCIDRQAYPNLCQLCKGEGENQCACSSREPYFGYSGAFKCLQDGAGDVAFVKETTVFENLPEKADRDQYELLCLNNSRAPVDAFKECHLAQVPSHAVVARSVDGKEDLIWKLLSKAQEKFGKNKSRSFQLFGSPPGQRDLLFKDSALGFLRIPSKVDSALYLGSRYLTTLKNLRETAEEVKARYTRVVWCAVGPEEQKKCQQWSQQSGQNVTCATASTTDDCIVLVLKGEADALNLDGGYIYTAGKCGLVPVLAENRKSSKHSSLDCVLRPTEGYLAVAVVKKANEGLTWNSLKDKKSCHTAVDRTAGWNIPMGLIVNQTGSCAFDEFFSQSCAPGADPKSRLCALCAGDDQGLDKCVPNSKEKYYGYTGAFRCLAEDVGDVAFVKNDTVWENTNGESTADWAKNLNREDFRLLCLDGTRKPVTEAQSCHLAVAPNHAVVSRSDRAAHVKQVLLHQQALFGKNGKNCPDKFCLFKSETKNLLFNDNTECLAKLGGRPTYEEYLGTEYVTAIANLKKCSTSPLLEACAFLTR
modifications: iron-saturated
notes: Iron-saturated bovine lactoferrin extract (100% saturated) prepared from natural bLf
As to B1, the “increase in anti-tumour cytolytic activity of splenocytes compared with control diet” value in the experiment with EL-4 target cells was found to be 66%. Further, in the experiment with EL-4 tumours [1], the “reduction in number of CD31+ vessels in tumours compared to control diet” value was 84% and the “reduction in tumour blood flow compared to control diet” value was 84%. Also, the “mice that completely rejected the tumour challenge” value in the experiment with EL-4 tumour cells (28 g Lf+ and/or 120 g milk fat per 2.4 Kg of diet, groups of six mice, until day 56) is “One of 6”. Further, the “mice in which appearance of tumours was delayed by one week” value with EL-4 tumour cells (28 g Lf+ or 120 g milk fat per 2.4 Kg of diet, groups of six mice) was 5 of 6. Besides, the “effect on tumour growth / tumorigenesis in individual mice” value with EL-4 tumour cells (groups of five mice, per 2.4 Kg of diet: 28 g Lf+, 120 g Phospholac 600, 1.2 g sphingomyelin) is “growth of two tumours being delayed by two weeks, and one by at least one week”. In addition, the “increase in tumour apoptosis compared to control diet” value in the experiment with EL-4 tumours [2] came out at 68%.
